Measured values: article PMC9580340 (Science (New York, N.y.), 2022)

B1: A19-61.1 IgG1 (antibody, V domains shown)
VH: QVQLVESGGGVVQPGRSLRLSCAASGFTFSSYAFHWVRQAPGKGLEWVAVISYDGSNQYYADSVKGRFTISRDNSKNTLYLQMNSLRADDTAVYYCARDLAIAVAGTWHYYNGMDVWGQGTTVTVSS
VL: DIQMTQSPSSVSASVGDRVIITCRASQGISSWLAWYQQKPGKAPKVLIYDASSLQSGVPSRFSGSGYGTDFTLTISSLQPEDSATYYCQQAKSFPITFGQGTRLEIK
B2: A19-46.1 IgG1 (antibody, V domains shown)
VH: QVQLVESGGGVVQPGRSLRLSCAASGFTLSSYGMHWVRQAPGKGLEWVAVISYDGSNKYYVDSVKGRFTISRDNSKNTLYLQMNSLRAEDTAVYYCARGWAYWELLPDYYYGMDVWGQGTTVTVSS
VL: QTVVTQEPSFSVSPGGTVTLTCGLSSGSVSTAYFPSWYQQTPGQAPRTLIYGTNTRSSGVPDRFSGSILGNKAALTITGAQADDESDYYCVLYMGRGIVVFGGGTKLTVL
B3: Fab A19-46.1 (Fab, V domains shown)
VH: B2 VH
VL: B2 VL
notes: 17-residue-long CDR H3

Assays:
[1] = biological target: T1, SARS-CoV-2 D614G spike, full length, on transfected 293T cells (SARS-CoV-2, QHD43416.1 (Wuhan-Hu-1) …, UniProt A0A6H1PJZ3, D614G); assay: flow cytometry on cells; settings: one partner purified
T1 construct: also called ancestral D614G spike

[2] = biological target: SARS-CoV-2 B.1.1.529 (Omicron; BA.1) spike, full length, on transfected 293T cells (SARS-CoV-2 B.1.1.529 (Omicron BA.1), A67V | H69del | V70del | T95I | G142D | V143del | Y144del | Y145del | N211del | …); assay: flow cytometry on cells; settings: one partner purified
[3] = biological target: T2, SARS-CoV-2 B.1.1.529 (Omicron) S2P spike, trimeric ectodomain (cryo-EM) (SARS-CoV-2 B.1.1.529 (Omicron BA.1), …, A67V | H69del | V70del | T95I | G142D | V143del | Y144del | Y145del | N211del | …); assay: cryo-EM structure; settings: both partners purified
T2 construct: also called B.1.1.529 spike; B.1.1.529 S2P spike

Row | Binder | binding result [1] | binding as percent of D614G [2] | stoichiometry N [3] [Fabs per spike trimer]
1 | B1 | binds |  | 
2 | B2 | binds | 47 % of D614G | 
3 | B3 |  |  | 2
